The term pKd denotes the Kd on a negative log10 scale, so that one unit is a factor of ten.

Test [1] deals with SARS-CoV-2 Beta RBD (SARS-CoV-2). Description: bio-layer interferometry (BLI, Octet), monovalent Fab affinity. (Biolayer interferometry detects binding as a change in optical thickness at a sensor tip.)
The target in test [2] is SARS-CoV-2 Omicron BA.4.1 spike protein (authentic virus) (SARS-CoV-2). Description: cell-based or functional assay.
Test [3] concerns the target SARS-CoV-2 Omicron BA.1 spike protein (authentic virus / MLV pseudovirus) (SARS-CoV-2). Description: cell-based or functional assay.
Test [4] has as its target SARS-CoV-2 Delta spike protein (authentic virus / MLV pseudovirus) (SARS-CoV-2). The test is described as follows: cell-based or functional assay.
Test [5] deals with SARS-CoV-2 Omicron BA.2 spike protein (authentic virus / MLV pseudovirus) (SARS-CoV-2). Description: cell-based or functional assay.
For test [6], the target named is SARS-CoV-2 Omicron BA.2.75 spike protein, Monogram pseudovirus (SARS-CoV-2) (UniProt P0DTC2). Description: cell-based or functional assay.
The target of test [7] is SARS-CoV-2 Omicron BA.5 spike glycoprotein (lentivirus-based pseudovirus) (SARS-CoV-2). The test is described as follows: cell-based or functional assay.
The target in test [8] is SARS-CoV-2 Omicron XBB.1 spike protein, Monogram pseudovirus (SARS-CoV-2) (UniProt P0DTC2). Description: cell-based or functional assay.
The target in test [9] is SARS-CoV-2 B.1.617.2 (Delta) spike protein, Monogram pseudovirus (SARS-CoV-2) (UniProt P0DTC2). The test is described as follows: cell-based or functional assay.
Test [10] deals with SARS-CoV-2 Beta spike protein (MLV pseudovirus) (SARS-CoV-2). Description: cell-based or functional assay.
Test [11] concerns the target SARS-CoV-2 Omicron BN.1 spike protein, Monogram pseudovirus (SARS-CoV-2) (UniProt P0DTC2). The test is described as follows: cell-based or functional assay.
Test [12] concerns the target SARS-CoV-2 Omicron BA.2.75 spike glycoprotein (lentivirus-based pseudovirus) (SARS-CoV-2). The test is described as follows: cell-based or functional assay.
Test [13] concerns the target SARS-CoV-2 Omicron XBB.1.5 spike protein, Monogram pseudovirus (SARS-CoV-2) (UniProt P0DTC2). The test is described as follows: cell-based or functional assay.
The target of test [14] is SARS-CoV-2 Omicron XBB spike protein, Monogram pseudovirus (SARS-CoV-2) (UniProt P0DTC2). The test is described as follows: cell-based or functional assay.

pKd: −log10 of the molar value.

Sequence of VYD222 (antibody) (VH): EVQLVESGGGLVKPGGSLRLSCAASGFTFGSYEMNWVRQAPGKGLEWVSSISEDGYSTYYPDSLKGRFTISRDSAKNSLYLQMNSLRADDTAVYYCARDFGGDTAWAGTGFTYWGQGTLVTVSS
Sequence of VYD222 (antibody) (VL): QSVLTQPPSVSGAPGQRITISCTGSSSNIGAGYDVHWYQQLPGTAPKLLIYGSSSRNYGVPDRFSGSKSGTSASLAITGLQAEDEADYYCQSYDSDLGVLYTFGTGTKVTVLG
Sequence of VYD223 (antibody) (VH): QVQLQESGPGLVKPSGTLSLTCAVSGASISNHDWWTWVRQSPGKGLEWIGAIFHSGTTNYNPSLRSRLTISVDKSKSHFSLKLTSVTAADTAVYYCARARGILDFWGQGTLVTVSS
Sequence of VYD223 (antibody) (VL): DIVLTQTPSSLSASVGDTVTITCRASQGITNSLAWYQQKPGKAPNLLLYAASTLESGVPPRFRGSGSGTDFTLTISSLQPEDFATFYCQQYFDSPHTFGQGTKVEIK
Sequence of VYD224 (antibody) (VH): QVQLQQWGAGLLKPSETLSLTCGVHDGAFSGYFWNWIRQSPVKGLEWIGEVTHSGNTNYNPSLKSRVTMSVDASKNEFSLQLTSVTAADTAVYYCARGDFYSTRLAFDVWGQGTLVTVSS
Sequence of VYD224 (antibody) (VL): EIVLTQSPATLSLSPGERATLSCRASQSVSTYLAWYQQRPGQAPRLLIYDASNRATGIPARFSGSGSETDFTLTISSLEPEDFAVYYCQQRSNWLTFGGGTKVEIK
Sequence of ADI-58125 (antibody) (VH): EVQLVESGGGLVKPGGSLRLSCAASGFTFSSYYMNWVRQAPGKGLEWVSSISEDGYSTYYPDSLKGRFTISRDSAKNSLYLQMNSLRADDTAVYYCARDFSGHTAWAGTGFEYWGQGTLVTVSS
Sequence of ADI-58125 (antibody) (VL): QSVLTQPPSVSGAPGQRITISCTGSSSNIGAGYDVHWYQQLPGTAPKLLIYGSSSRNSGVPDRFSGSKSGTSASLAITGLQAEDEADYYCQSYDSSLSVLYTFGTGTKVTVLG

Take ADI-58125 (Fab): the pKd in test [1] was 8.19.
Turning to ADI-58125 (antibody), the IC50, authentic virus neutralization is over 5000 ng/mL in test [2], over 5000 ng/mL in [3], 49 ng/mL in [4] and over 5000 ng/mL in test [5]. Moreover, the IC90, authentic virus neutralization is over 5000 ng/mL in test [2], over 5000 ng/mL in test [3], 156 ng/mL in test [4] and over 5000 ng/mL in [5].
For CoV2-2130 (antibody), the IC50, authentic virus neutralization in [2] is 88 ng/mL; in test [3], over 5000 ng/mL; in [4], 61 ng/mL; in test [5], 11 ng/mL. In addition, the IC90, authentic virus neutralization in [2] is 587 ng/mL; in [3], over 5000 ng/mL; in test [4], 136 ng/mL; in [5], 37 ng/mL.
LY-CoV1404 (antibody): the IC50, authentic virus neutralization is 26 ng/mL in [2], 4 ng/mL in test [3], 27 ng/mL in test [4] and 10 ng/mL in [5]. Further, the IC90, authentic virus neutralization in [2] amounted to 100 ng/mL; in test [3], 152 ng/mL; in test [4], 96 ng/mL; in [5], 69 ng/mL.
VYD222 (antibody): the IC50, PhenoSense pseudovirus neutralization was 1360 ng/mL in [6]; 121 ng/mL in [8]; 4.2 ng/mL in test [9]; 2110 ng/mL in [11]; 81 ng/mL in [13]; 152 ng/mL in test [14]. Further, the IC50, lentivirus-based pseudovirus neutralization in [7] amounted to 30 ng/mL; in test [12], 100 ng/mL. Also, the IC50, authentic virus neutralization was 41 ng/mL in [2], 26 ng/mL in test [3], 16 ng/mL in test [4] and 8 ng/mL in test [5]. Besides, the IC90, authentic virus neutralization in test [2] came to 524 ng/mL; in test [3] it was 143 ng/mL; in test [4] it was 103 ng/mL; in test [5] it was 231 ng/mL. Besides, the IC50, MLV-based pseudovirus neutralization in [3], in [4], in test [5] and in test [10] was under 0.0001 ng/mL each time.
For VYD223 (antibody), the IC50, authentic virus neutralization in test [2] worked out at 63 ng/mL; in [3], 15 ng/mL; in [4], 13 ng/mL; in test [5] it was 16 ng/mL. Besides, the IC90, authentic virus neutralization in test [2] came to 437 ng/mL; in test [3], 68 ng/mL; in test [4], 60 ng/mL; in test [5], 84 ng/mL.
Take VYD224 (antibody): the IC50, PhenoSense pseudovirus neutralization in [6] is 4 ng/mL; in test [8] it was over 5000 ng/mL; in test [9], 1 ng/mL; in test [11], 1.5 ng/mL; in test [13], over 5000 ng/mL; in test [14], over 5000 ng/mL. Further, the IC50, lentivirus-based pseudovirus neutralization in [7] amounted to 80 ng/mL; in test [12] it was 10 ng/mL. The IC50, authentic virus neutralization was determined as 126 ng/mL in test [2], 10 ng/mL in test [3], 6 ng/mL in test [4] and 16 ng/mL in [5]. The IC90, authentic virus neutralization was 359 ng/mL in test [2], 23 ng/mL in test [3], 14 ng/mL in test [4] and 54 ng/mL in [5].
